Data reported in patent publication US5795721.
pKd: −log10 of the molar value.

Biological target: T1, FP505 (ICP4 residues 210-490 DNA-binding/dimerization domain fusion) (Herpes simplex virus 1) (UniProt P08392)
T1 sequence: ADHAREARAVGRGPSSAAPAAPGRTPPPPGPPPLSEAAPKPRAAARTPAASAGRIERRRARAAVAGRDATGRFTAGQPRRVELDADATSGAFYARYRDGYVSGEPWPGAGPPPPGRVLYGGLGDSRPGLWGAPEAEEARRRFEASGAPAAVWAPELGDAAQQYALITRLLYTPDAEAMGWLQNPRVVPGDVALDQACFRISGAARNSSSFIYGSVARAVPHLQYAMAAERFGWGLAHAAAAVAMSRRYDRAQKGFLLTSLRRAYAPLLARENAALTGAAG
Experiment: filter

ICP0 promoter duplex 200mer
pKd (without tRNA, >1 uM with tRNA excess): 9.30

GGGAGACAAGAAUAAACGCUCAANNNNNNNNNNNNNNNNNNNNNNNNNNNNNNNNNNNNNNNNUUCGACAGGAGGCUCACAACAGGC [random RNA pool]
pKd (random pool): < 7.00

GGGAGGACAGTGCGGNNNNNNNNNNNNNNNNNNNNNNNNNNNNNNNNNNNNNNNNCAGTGCGTCAGTCAAC [random ssDNA pool]
pKd (with tRNA, >11 nM without tRNA): < 6.80
